# According to PMC3531493, “Inhibition of a NEDD8 Cascade Restores Restriction of HIV by APOBEC3G” (PLoS Pathogens, 2012):
# T1: UBE2F, full-length (UniProt Q969M7 1-185)
# T1 construct: UBE2F, NEDD8-conjugating enzyme, full-length; Unlabelled in the HSQC experiments on 15N-labelled RBX2 RING; also called NEDD8 E2; NEDD8-conjugating enzyme UBE2F; source: E. coli BL21(DE3)-Star or BL21(DE3), purified (Ni-NTA, TEV cleavage, SEC)
# T1 sequence (looked up): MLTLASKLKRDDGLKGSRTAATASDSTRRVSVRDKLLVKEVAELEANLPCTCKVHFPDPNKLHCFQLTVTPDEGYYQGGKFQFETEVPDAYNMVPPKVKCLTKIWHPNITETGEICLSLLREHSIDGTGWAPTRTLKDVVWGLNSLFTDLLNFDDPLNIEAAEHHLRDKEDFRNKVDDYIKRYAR
# T2: UBE2F residues 26-185 (UBE2F core) (UniProt Q969M7 26-185)
# T2 construct: UBE2F, residues 26-185 (UBE2F core); Unlabelled when added to 15N RBX2 RING; 15N-labelled when RBX2 RING was added to it; source: E. coli BL21(DE3)-Star or BL21(DE3), purified (Ni-NTA, TEV cleavage, SEC)
# T2 sequence (looked up): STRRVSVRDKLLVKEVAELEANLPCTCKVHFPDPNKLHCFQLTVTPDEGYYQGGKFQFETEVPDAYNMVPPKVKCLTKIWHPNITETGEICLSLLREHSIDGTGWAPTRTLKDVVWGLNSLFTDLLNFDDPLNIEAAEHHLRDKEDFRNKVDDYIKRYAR
# Legend:
# [1] = target: CUL5/RBX2 complex (UniProt Q93034)
# Chain of CUL5/RBX2 complex (Q93034 whole entry, one chain of several): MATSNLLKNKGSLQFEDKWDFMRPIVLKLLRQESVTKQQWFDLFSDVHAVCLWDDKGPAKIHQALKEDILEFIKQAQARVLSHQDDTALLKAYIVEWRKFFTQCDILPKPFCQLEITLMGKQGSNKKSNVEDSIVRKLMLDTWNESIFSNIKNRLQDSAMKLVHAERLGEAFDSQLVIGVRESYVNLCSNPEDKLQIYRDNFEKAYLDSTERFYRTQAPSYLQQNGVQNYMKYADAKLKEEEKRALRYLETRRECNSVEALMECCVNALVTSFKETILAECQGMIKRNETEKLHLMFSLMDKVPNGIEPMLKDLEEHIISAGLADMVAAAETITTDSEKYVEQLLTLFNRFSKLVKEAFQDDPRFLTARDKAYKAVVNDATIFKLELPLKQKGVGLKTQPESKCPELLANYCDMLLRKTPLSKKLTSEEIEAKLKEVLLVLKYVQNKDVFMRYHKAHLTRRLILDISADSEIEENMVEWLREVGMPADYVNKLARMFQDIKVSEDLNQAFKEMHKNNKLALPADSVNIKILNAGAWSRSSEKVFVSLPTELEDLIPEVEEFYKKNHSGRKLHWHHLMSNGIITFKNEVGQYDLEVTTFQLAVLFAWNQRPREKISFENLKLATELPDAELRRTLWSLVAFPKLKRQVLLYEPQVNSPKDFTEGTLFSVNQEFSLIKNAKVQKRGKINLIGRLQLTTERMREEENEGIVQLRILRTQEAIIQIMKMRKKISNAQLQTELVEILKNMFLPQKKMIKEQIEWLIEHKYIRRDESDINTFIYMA
# [2] = target: T1, UBE2F, full-length; assay: NMR titration; 15N-HSQC of 50 µM 15N-labelled RBX2 RING with unlabelled E2 added (∼100 µM in Fig. 3D; increasing concentrations in Fig. 5D); 20°C; 100 mM NaCl, 1 mM DTT, 25 mM HEPES pH 7.5; conditions: both partners purified
# [3] = target: T2, UBE2F residues 26-185 (UBE2F core); assay: as above; conditions: both partners purified
Molecule,"rate of NEDD8 transfer from UBE2F mutant to CUL5/RBX2 (pulse-chase), against wild-type UBE2F (orders of magnitude (reduction)) [1]",binding result [2],binding result [3]
UBE2F (N92A) (from UniProt Q969M7 26-185) (enzyme),3,–,–
"RBX2 RING domain (44-113) (domain or fragment, UniProt Q9UBF6 44-113, looked up, RBX2 (RING-box protein 2), RING domain, residues 44-113; 15N-labelled when the E2 enzymes were added to it; unlabelled when added to 15N UBE2F core; also called RBX2 core domain; source: E. coli BL21(DE3)-Star or BL21(DE3), with ZnCl2, purified (Ni-NTA, TEV cleavage, SEC)) DVECDTCAICRVQVMDACLRCQAENKQEDCVVVWGECNHSFHNCCMSLWVKQNNRCPLCQQDWVVQRIGK",–,binds,binds
